The text below walks through data of patent US20070274981A1.

For test [1], the target named is Recombinant FGFR-1(IIIc) (UniProt P11362). As to the kind of experiment: ELISA blocking assay: FGFR-1(IIIc) binding to immobilised FGF-1. In general terms: ELISA stands for enzyme-linked immunosorbent assay.
Test [2] has the same target. As to the kind of experiment: BiaCore 3000 biosensor, binding kinetics. (In general: SPR reads the build-up and loss of mass on a sensor chip optically.)
In test [3] the target is FGFR-1(IIIc) on transfected L6 cells (UniProt P11362). As to the kind of experiment: cell-based blocking assay: 125I-FGF-2 (15 ng/ml) binding to FGFR-1(IIIc)-expressing L6 cells.
Test [4] concerns the target Recombinant FGFR-1(IIIc) (UniProt P11362). Description: ELISA blocking assay: FGFR-1(IIIc) binding to immobilised FGF-2.
For test [5] the target is unchanged. As to the kind of experiment: kinetic analysis (BiaCore).
Test [6] has the same target. As to the kind of experiment: ELISA blocking assay: FGFR-1(IIIc) binding to FGF-2.
For test [7] the target is unchanged. As to the kind of experiment: ELISA blocking assay: FGFR-1(IIIc) binding to FGF-1.

B1: FR1-H7 (antibody, V domains shown)
VH: EVQLVQSGAEVKKPGASVKVSCKVSGYTFTDYYMHWVQQAPGKGLEWMGLVDPEDGETIYAEKFQGRVTITADTSTDTAYMELSSLRSEDTAVYYCARDDYMDVWGKGTLVTVSS
VL: ETTLTQSPDTLSLSPGEGATLSCRASQSVSGSALAWYQQKPGQAPRLLIYDASSRATGVPDRFSGSGSGADFSLTISRLEPEDFAVYSCQQYGSSPLTFGPGTKVDVKR
The term IC50 denotes the concentration at which inhibition is half-maximal. In general, Kd refers to the constant that tells how readily two partners part at equilibrium. For B1, the IC50 with Recombinant FGFR-1(IIIc) [1] was 5 nM; in test [3], under 5 nM; with Recombinant FGFR-1(IIIc) [4], 2 to 5 nM. The equilibrium dissociation constant (Kd) with Recombinant FGFR-1(IIIc) [2] was 0.04 nM; with Recombinant FGFR-1(IIIc) [5] it was 0.05 nM.

B2: FR1-A1 (antibody, V domains shown)
VH: QVQLVQSGAEVKKPGSSVKVSCKASGQTFTGYYMHWVRQAPGQGLEWMGRIIPILGIANYAQKFQGRVTITADKSTSTAYMELSSLRSEDTAVYYCARGGDLGGMDVWGQG
VL: EIVLTQSPLSLPVTPGEPASISCRSSQSLRHSNGYNYLDWYLQKPGQSPQLLIYLASNRASGVPDRFSGSGSGTDFTLKISRVEAEDVGVYYCMQALQIPPTFGPGTKVDIKR
B2: the half-inhibitory concentration (IC50) was determined as 10 nM in the test with Recombinant FGFR-1(IIIc) [6] and 5 nM in the test with Recombinant FGFR-1(IIIc) [7]. In addition, the equilibrium dissociation constant (Kd) with Recombinant FGFR-1(IIIc) [5] came out at 0.7 nM.
